This assay deals with T1, Homothorax (Hth) (Drosophila, UniProt O46339 1-487).
T1 sequence (looked up): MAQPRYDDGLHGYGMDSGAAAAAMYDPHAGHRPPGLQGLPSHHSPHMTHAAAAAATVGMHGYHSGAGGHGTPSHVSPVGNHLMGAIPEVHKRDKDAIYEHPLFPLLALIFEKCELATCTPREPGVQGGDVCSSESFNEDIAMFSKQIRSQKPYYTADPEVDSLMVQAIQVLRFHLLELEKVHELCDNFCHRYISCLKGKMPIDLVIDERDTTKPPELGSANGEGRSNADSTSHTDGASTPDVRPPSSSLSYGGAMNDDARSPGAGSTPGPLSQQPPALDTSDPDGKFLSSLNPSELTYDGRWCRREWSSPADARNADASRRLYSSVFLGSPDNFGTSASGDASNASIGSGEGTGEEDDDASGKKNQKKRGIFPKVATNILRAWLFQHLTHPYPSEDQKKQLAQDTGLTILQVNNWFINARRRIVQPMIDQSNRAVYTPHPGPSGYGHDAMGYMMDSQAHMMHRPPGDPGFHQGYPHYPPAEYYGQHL
Briefly: native gel or EMSA. (In EMSA bound probe runs differently from free probe, usually more slowly.)

B1: Extradenticle (Exd) (natural protein, Drosophila, UniProt P40427 1-376, looked up)
chain: MEDPNRMLAHTGGMMAPQGYGLSGQDDGQNAGSENEVRKQKDIGEILQQIMSISEQSLDEAQARKHTLNCHRMKPALFSVLCEIKEKTVLSIRNTQEEEPPDPQLMRLDNMLIAEGVAGPEKGGGGAAAASAAAASQGGSLSIDGADNAIEHSDYRAKLAQIRQIYHQELEKYEQACNEFTTHVMNLLREQSRTRPITPKEIERMVQIIHKKFSSIQMQLKQSTCEAVMILRSRFLDARRKRRNFSKQASEILNEYFYSHLSNPYPSEEAKEELARKCGITVSQVSNWFGNKRIRYKKNIGKAQEEANLYAAKKAAGASPYSMAGPPSGTTTPMMSPAPPQDSMGYPMGSGGYDQQQPYDNSMGGYDPNLHQDLSP
Take B1: the binding result is on record as “binds”.

The values above are taken from PMC2610489 (Developmental cell, 2008).
